Assay results as given in the supplement of paper PMC5998384.

Assays:
HeLa Kyoto [1] = experiment: solubility in G1/S (NP-40 vs SDS abundance) (log2 ratio); higher = more soluble; conditions: cell cycle stage: G1/S
HeLa Kyoto [2] = experiment: melting temperature (median over replicates), in situ; higher = more thermally stable
HeLa Kyoto [3] = experiment: solubility change mitosis vs G1/S (difference of NP-40 vs SDS log2 ratios) (log2 ratio difference); higher = more soluble in mitosis
HeLa Kyoto [4] = experiment: thermal stability score vs G1/S (z-score of summed log2 fold changes over temperatures); higher = more thermally stable than in G1/S
[5] = cell cycle stage: early G1 (4.5 h after nocodazole release)
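Throughout, for melting temperature (median over replicates), in situ: HeLa Kyoto cells synchronized by double thymidine or nocodazole block, proteins quantified by TMT10plex mass spectrometry, three independent biological replicates.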
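Throughout, for solubility change mitosis vs G1/S (difference of NP-40 vs SDS log2 ratios): synchronized HeLa Kyoto cells (double thymidine block for G1/S, nocodazole release for mitosis), protein amounts in NP-40 versus SDS lysates quantified by mass spectrometry, three biological replicates.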
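Throughout, for solubility in G1/S (NP-40 vs SDS abundance): HeLa Kyoto cells arrested at G1/S by double thymidine block, proteins quantified by TMT10plex mass spectrometry in mild NP-40 versus SDS extracts, three biological replicates.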
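Throughout, for thermal stability score vs G1/S (z-score of summed log2 fold changes over temperatures): synchronized HeLa Kyoto cells, proteins quantified by TMT10plex mass spectrometry, three biological replicates, mitosis taken 0.5 h after nocodazole release, G1/S directly after double thymidine block.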

| Substance | solubility in G1/S (log2) (HeLa Kyoto [1]) | melting temperature (HeLa Kyoto [2]; cell cycle stage: G1/S) | melting temperature (HeLa Kyoto [2]; cell cycle stage: mitosis) | solubility change mitosis (log2) (HeLa Kyoto [3]) | thermal stability score (HeLa Kyoto [4]; [5]) | thermal stability score (HeLa Kyoto [4]; cell cycle stage: mitosis) |
| --- | --- | --- | --- | --- | --- | --- |
| BTAF1 | -0.142 | 50 °C | 50.1 °C | -0.118 | 0.553 | 1.71 |
| MAATLDLKSKEEKDAELDKRIEALRRKNEALIRRYQEIEEDRKKAELEGVAVTAPRKGRSVEKENVAVESEKNLGPSRRSPGTPRPPGASKGGRTPPQQGGRAGMGRASRSWEGSPGEQPRGGGAGGRGRRGRGRGSPHLSGAGDTSISDRKSKEWEERRRQNIEKMNEEMEKIAEYERNQREGVLEPNPVRNFLDDPRRRSGPLEESERDRREESRRHGRNWGGPDFERVRCGLEHERQGRRAGLGSAGDMTLSMTGRERSEYLRWKQEREKIDQERLQRHRKPTGQWRREWDAEKTDGMFKDGPVPAHEPSHRYDDQAWARPPKPPTFGEFLSQHKAEASSRRRRKSSRPQAKAAPRAYSDHDDRWETKEGAASPAPETPQPTSPETSPKETPMQPPEIPAPAHRPPEDEGEENEGEEDEEWEDISEDEEEEEIEVEEGDEEEPAQDHQAPEAAPTGIPCSEQAHGVPFSPEEPLLEPQAPGTPSSPFSPPSGHQPVSDWGEEVELNSPRTTHLAGALSPGEAWPFESV [CCDC9] | -0.239 | 56.3 °C | 56.3 °C | 0.231 | 3.28 | 2.57 |
| MELPSGPGPERLFDSHRLPGDCFLLLVLLLYAPVGFCLLVLRLFLGIHVFLVSCALPDSVLRRFVVRTMCAVLGLVARQEDSGLRDHSVRVLISNHVTPFDHNIVNLLTTCSTPLLNSPPSFVCWSRGFMEMNGRGELVESLKRFCASTRLPPTPLLLFPEEEATNGREGLLRFSSWPFSIQDVVQPLTLQVQRPLVSVTVSDASWVSELLWSLFVPFTVYQVRWLRPVHRQLGEANEEFALRVQQLVAKELGQTGTRLTPADKAEHMKRQRHPRLRPQSAQSSFPPSPGPSPDVQLATLAQRVKEVLPHVPLGVIQRDLAKTGCVDLTITNLLEGAVAFMPEDITKGTQSLPTASASKFPSSGPVTPQPTALTFAKSSWARQESLQERKQALYEYARRRFTERRAQEAD [AUP1] | -0.262 | 50.9 °C | 50.6 °C | -0.102 | 0.525 | 0.836 |
| MSLVAYASSDESEPDEAEPEPEEEEAVAPTSGPALGGLFASLPAPKGPALLPPPPQMLAPAFPPPLLLPPPTGDPRLQPPPPLPFGLGGFPPPPGVSPAEAAGVGEGLGLGLPSPRGPGLNLPPPIGGAGPPLGLPKPKKRKEPVKIAAPELHKGDSDSEEDEPTKKKTILQGSSEGTGLSALLPQPKNLTVKETNRLLLPHAFSRKPSDGSPDTKPSRLASKTKTSSLAPVVGTTTTTPSPSAIKAAAKSAALQVTKQITQEEDDSDEEVAPENFFSLPEKAEPPGVEPYPYPIPTVPEELPPGTEPEPAFQDDAANAPLEFKMAAGSSGAPWMPKPGDDYSYNQFSTYGDANAAGAYYQDYYSGGYYPAQDPALVPPQEIAPDASFIDDEAFKRLQGKRNRGREEINFVEIKGDDQLSGAQQWMTKSLTEEKTMKSFSKKKGEQPTGQQRRKHQITYLIHQAKERELELKNTWSENKLSRRQTQAKYGF [PRCC] | 0.46 | 53.2 °C | 53.8 °C | -0.00665 | -2.8 | -0.438 |
| MEVKRLKVTELRSELQRRGLDSRGLKVDLAQRLQEALDAEMLEDEAGGGGAGPGGACKAEPRPVAASGGGPGGDEEEDEEEEEEDEEALLEDEDEEPPPAQALGQAAQPPPEPPEAAAMEAAAEPDASEKPAEATAGSGGVNGGEEQGLGKREEDEPEERSGDETPGSEVPGDKAAEEQGDDQDSEKSKPAGSDGERRGVKRQRDEKDEHGRAYYEFREEAYHSRSKSPLPPEEEAKDEEEDQTLVNLDTYTSDLHFQVSKDRYGGQPLFSEKFPTLWSGARSTYGVTKGKVCFEAKVTQNLPMKEGCTEVSLLRVGWSVDFSRPQLGEDEFSYGFDGRGLKAENGQFEEFGQTFGENDVIGCFANFETEEVELSFSKNGEDLGVAFWISKDSLADRALLPHVLCKNCVVELNFGQKEEPFFPPPEEFVFIHAVPVEERVRTAVPPKTIEECEVILMVGLPGSGKTQWALKYAKENPEKRYNVLGAETVLNQMRMKGLEEPEMDPKSRDLLVQQASQCLSKLVQIASRTKRNFILDQCNVYNSGQRRKLLLFKTFSRKVVVVVPNEEDWKKRLELRKEVEGDDVPESIMLEMKANFSLPEKCDYMDEVTYGELEKEEAQPIVTKYKEEARKLLPPSEKRTNRRNNRNKRNRQNRSRGQGYVGGQRRGYDNRAYGQQYWGQPGNRGGYRNFYDRYRGDYDRFYGRDYEYNRYRDYYRQYNRDWQSYYYHHPQDRDRYYRNYYGYQGYR [HNRNPUL2] | -0.462 | 49.2 °C | 50.1 °C | 0.258 | 0.965 | 3.42 |
| HERC2 | -0.443 | 51.3 °C | 50 °C | 0.00915 | 0.138 | 0.405 |
